Test results published in patent US20140178854A1.

Columns and labels:
[1] = target: gp70 env protein of amphotropic MLV (4070A envelope), on purified viral particles (amphotropic murine leukemia virus (4070A envelope)); assay: ELISA on plate-bound MLV, dilution factor 50, Exp125-Ana Plate 1
[2] = target: gp70 env protein of amphotropic MLV (4070A envelope), on purified viral particles (amphotropic murine leukemia virus (4070A envelope)); assay: ELISA on plate-bound MLV, dilution factor 156250, Exp074-DTV Plate 2
[3] = target: gp70 env protein of amphotropic MLV (4070A envelope), on purified viral particles (amphotropic murine leukemia virus (4070A envelope)); assay: ELISA on plate-bound MLV, dilution factor 50, Exp121-Ana Plate 2
[4] = target: gp70 env protein of amphotropic MLV (4070A envelope), on purified viral particles (amphotropic murine leukemia virus (4070A envelope)); assay: ELISA on plate-bound MLV, dilution factor 10, Exp073-DTV Plate 2
[5] = target: gp70 env protein of amphotropic MLV (4070A envelope), on purified viral particles (amphotropic murine leukemia virus (4070A envelope)); assay: ELISA on plate-bound MLV, dilution factor 781250, Exp122-Ana Plate 2
[6] = target: gp70 env protein of amphotropic MLV (4070A envelope), on purified viral particles (amphotropic murine leukemia virus (4070A envelope)); assay: ELISA on plate-bound MLV, dilution factor 50, inter-assay mean of six experiments
[7] = target: gp70 env protein of amphotropic MLV (4070A envelope), on purified viral particles (amphotropic murine leukemia virus (4070A envelope)); assay: ELISA on plate-bound MLV, dilution factor 781250, Exp121-Ana Plate 2
[8] = target: gp70 env protein of amphotropic MLV (4070A envelope), on purified viral particles (amphotropic murine leukemia virus (4070A envelope)); assay: ELISA on plate-bound MLV, dilution factor 156250, Exp122-Ana Plate 1
[9] = target: gp70 env protein of amphotropic MLV (4070A envelope), on purified viral particles (amphotropic murine leukemia virus (4070A envelope)); assay: ELISA on plate-bound MLV, dilution factor 1250, Exp121-Ana Plate 1
[10] = target: gp70 env protein of amphotropic MLV (4070A envelope), on purified viral particles (amphotropic murine leukemia virus (4070A envelope)); assay: ELISA on plate-bound MLV, dilution factor 1250, Exp072-DTV Plate 1
[11] = target: gp70 env protein of amphotropic MLV (4070A envelope), on purified viral particles (amphotropic murine leukemia virus (4070A envelope)); assay: ELISA on plate-bound MLV, dilution factor 50, Exp072-DTV Plate 1
[12] = target: gp70 env protein of amphotropic MLV (4070A envelope), on purified viral particles (amphotropic murine leukemia virus (4070A envelope)); assay: ELISA on plate-bound MLV, dilution factor 156250, inter-assay mean of six experiments
[13] = target: gp70 env protein of amphotropic MLV (4070A envelope), on purified viral particles (amphotropic murine leukemia virus (4070A envelope)); assay: ELISA on plate-bound MLV, dilution factor 156250, Exp125-Ana Plate 1
[14] = target: gp70 env protein of amphotropic MLV (4070A envelope), on purified viral particles (amphotropic murine leukemia virus (4070A envelope)); assay: ELISA on plate-bound MLV, dilution factor 31250, Exp125-Ana Plate 2
[15] = target: gp70 env protein of amphotropic MLV (4070A envelope), on purified viral particles (amphotropic murine leukemia virus (4070A envelope)); assay: ELISA on plate-bound MLV, dilution factor 31250, Exp122-Ana Plate 1
[16] = target: gp70 env protein of amphotropic MLV (4070A envelope), on purified viral particles (amphotropic murine leukemia virus (4070A envelope)); assay: ELISA on plate-bound MLV, dilution factor 31250, Exp072-DTV Plate 2
[17] = target: gp70 env protein of amphotropic MLV (4070A envelope), on purified viral particles (amphotropic murine leukemia virus (4070A envelope)); assay: ELISA on plate-bound MLV, dilution factor 1250, Exp073-DTV Plate 1
[18] = target: gp70 env protein of amphotropic MLV (4070A envelope), on purified viral particles (amphotropic murine leukemia virus (4070A envelope)); assay: ELISA on plate-bound MLV, dilution factor 31250, inter-assay mean of six experiments
[19] = target: gp70 env protein of amphotropic MLV (4070A envelope), on purified viral particles (amphotropic murine leukemia virus (4070A envelope)); assay: ELISA on plate-bound MLV, dilution factor 31250, Exp072-DTV Plate 1
[20] = target: gp70 env protein of amphotropic MLV (4070A envelope), on purified viral particles (amphotropic murine leukemia virus (4070A envelope)); assay: ELISA on plate-bound MLV, dilution factor 250, Exp121-Ana Plate 1
[21] = target: gp70 env protein of amphotropic MLV (4070A envelope), on purified viral particles (amphotropic murine leukemia virus (4070A envelope)); assay: ELISA on plate-bound MLV, dilution factor 250, Exp073-DTV Plate 2
[22] = target: gp70 env protein of amphotropic MLV (4070A envelope), on purified viral particles (amphotropic murine leukemia virus (4070A envelope)); assay: ELISA on plate-bound MLV, dilution factor 10, Exp125-Ana Plate 2
[23] = target: gp70 env protein of amphotropic MLV (4070A envelope), on purified viral particles (amphotropic murine leukemia virus (4070A envelope)); assay: ELISA on plate-bound MLV, dilution factor 10, Exp073-DTV Plate 1
[24] = target: gp70 env protein of amphotropic MLV (4070A envelope), on purified viral particles (amphotropic murine leukemia virus (4070A envelope)); assay: ELISA on plate-bound MLV, dilution factor 781250, Exp072-DTV Plate 1
[25] = target: gp70 env protein of amphotropic MLV (4070A envelope), on purified viral particles (amphotropic murine leukemia virus (4070A envelope)); assay: ELISA on plate-bound MLV, dilution factor 10, Exp125-Ana Plate 1
[26] = target: gp70 env protein of amphotropic MLV (4070A envelope), on purified viral particles (amphotropic murine leukemia virus (4070A envelope)); assay: ELISA on plate-bound MLV, dilution factor 50, Exp121-Ana Plate 1

Chain of gp70 env protein of amphotropic MLV (4070A envelope), on purified viral particles (amphotropic murine leukemia virus (4070A envelope)) (P21995 whole entry): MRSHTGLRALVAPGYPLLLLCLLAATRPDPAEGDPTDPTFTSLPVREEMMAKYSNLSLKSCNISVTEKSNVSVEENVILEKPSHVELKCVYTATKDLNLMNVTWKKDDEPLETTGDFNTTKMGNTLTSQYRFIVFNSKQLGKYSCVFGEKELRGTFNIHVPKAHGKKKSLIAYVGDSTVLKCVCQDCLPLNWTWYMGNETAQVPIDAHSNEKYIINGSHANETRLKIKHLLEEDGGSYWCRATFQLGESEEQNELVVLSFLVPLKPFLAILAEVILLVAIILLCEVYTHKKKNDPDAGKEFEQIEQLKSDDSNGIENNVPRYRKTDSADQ

Work on “83A25 monoclonal antibody (rat IgG2a, anti-gp70)” yielded a Mean OD [1] of 1.99 OD, a Mean OD [2] of 0.131 OD and a Mean OD [3] of 2.46 OD. It also gave a Mean OD [4] of 2.48 OD, a Mean OD [5] of 0.141 OD and a Mean OD (inter-assay mean) [6] of 2.09 OD. It also gave a Mean OD [7] of 0.131 OD, a Mean OD [8] of 0.18 OD and a Mean OD [9] of 1.93 OD. For the same substance, the Mean OD [10] was 1.3 OD, the Mean OD [11] was 1.75 OD and the Mean OD (inter-assay mean) [12] was 0.144 OD. For the same substance, the Mean OD [13] was 0.136 OD, the Mean OD [14] was 0.239 OD and the Mean OD [15] was 0.289 OD. The Mean OD [16] was 0.21 OD, the Mean OD [17] was 1.78 OD and the Mean OD (inter-assay mean) [18] was 0.259 OD. For the same substance, the Mean OD [19] was 0.202 OD, the Mean OD [20] was 2.37 OD and the Mean OD [21] was 2.12 OD. It also gave a Mean OD [22] of 2.27 OD, a Mean OD [23] of 2.43 OD and a Mean OD [24] of 0.087 OD. It also gave a Mean OD [25] of 2.17 OD and a Mean OD [26] of 2.43 OD.
